Test results reported in patent US11833164B2, “Methods of treating Fabry disease in patients having a mutation in the GLA gene” (Amicus Therapeutics, Inc., priority 2019, dated 2023).

Tested on: mutant form of α-Gal A expressed in HEK-293 cells
Assay: HEK assay (GLP HEK / Migalastat Amenability Assay): α-Gal A activity in lysates of transiently transfected HEK-293 cells incubated with or without 10 μM migalastat
Assay type: cell-based, human
Details: for Absolute increase (% WT): 10 μM migalastat versus baseline; for Relative increase: 10 μM migalastat α-Gal A activity relative to baseline; for 10 μM migalastat α-Gal A activity (% WT): 5 days; for 10 μM migalastat α-Gal A activity (% WT) / Baseline α-Gal A activity (% WT): percentage of baseline wild-type α-Gal A activity; for 10 μM migalastat α-Gal A activity (% WT) / Baseline α-Gal A activity (% WT) / Baseline α-Gal A activity / 10 μM migalastat α-Gal A activity: mean ± SEM; for Baseline α-Gal A activity (% WT): absence of migalastat; for Baseline α-Gal A activity / 10 μM migalastat α-Gal A activity: lysates of HEK-293 cells transfected with the mutant form; for Baseline α-Gal A activity: incubated 5 days in the absence of migalastat; for 10 μM migalastat α-Gal A activity: incubated 5 days with 10 μM migalastat
Outline: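 Activity reported as 4-MU released (nmol/mg/hr), mean±SEM, from lysates of transiently transfected HEK-293 cells expressing mutant α-Gal A, cultured with or without 10 μM migalastat.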

B1: F169Y (protein)
chain: MQLRNPELHLGCALALRFLALVSWDIPGARALDNGLARTPTMGWLHWERFMCNLDCQEEPDSCISEKLFMEMAELMVSEGWKDAGYEYLCIDDCWMAPQRDSEGRLQADPQRFPHGIRQLANYVHSKGLKLGIYADVGNKTCAGFPGSFGYYDIDAQTFADWGVDLLKYDGCYCDSLENLADGYKHMSLALNRTGRSIVYSCEWPLYMWPFQKPNYTEIRQYCNHWRNFADIDDSWKSIKSILDWTSFNQERIVDVAGPGGWNDPDMLVIGNFGLSWNQQVTQMALWAIMAAPLFMSNDLRHISPQAKALLQDKDVIAINQDPLGKQGYQLRQGDNFEVWERPLSGLAWAVAMINRQEIGGPRSYTIAVASLGKGVACNPACFITQLLPVKRKLGFYEWTSRLRSHINPTGTVLLQLENTMQMSLKDLL
Absolute increase (% WT): 30.2 % WT | Relative increase: 1.6 | 10 μM migalastat α-Gal A activity (% WT): 75.5 ± 3.6 % WT | Baseline α-Gal A activity (% WT): 45.3 ± 2.8 % WT | Baseline α-Gal A activity: 14358 ± 1768 nmol/mg/h | 10 μM migalastat α-Gal A activity: 23459 ± 2391 nmol/mg/h

B2: Y173S (protein)
chain: MQLRNPELHLGCALALRFLALVSWDIPGARALDNGLARTPTMGWLHWERFMCNLDCQEEPDSCISEKLFMEMAELMVSEGWKDAGYEYLCIDDCWMAPQRDSEGRLQADPQRFPHGIRQLANYVHSKGLKLGIYADVGNKTCAGFPGSFGYYDIDAQTFADWGVDLLKFDGCSCDSLENLADGYKHMSLALNRTGRSIVYSCEWPLYMWPFQKPNYTEIRQYCNHWRNFADIDDSWKSIKSILDWTSFNQERIVDVAGPGGWNDPDMLVIGNFGLSWNQQVTQMALWAIMAAPLFMSNDLRHISPQAKALLQDKDVIAINQDPLGKQGYQLRQGDNFEVWERPLSGLAWAVAMINRQEIGGPRSYTIAVASLGKGVACNPACFITQLLPVKRKLGFYEWTSRLRSHINPTGTVLLQLENTMQMSLKDLL
Absolute increase (% WT): 14.8 % WT | Relative increase: 1.2 | 10 μM migalastat α-Gal A activity (% WT): 76.2 ± 3.3 % WT | Baseline α-Gal A activity (% WT): 61.4 ± 3.3 % WT | Baseline α-Gal A activity: 21751 ± 1625 nmol/mg/h | 10 μM migalastat α-Gal A activity: 26270 ± 994 nmol/mg/h

B3: G171V (protein)
chain: MQLRNPELHLGCALALRFLALVSWDIPGARALDNGLARTPTMGWLHWERFMCNLDCQEEPDSCISEKLFMEMAELMVSEGWKDAGYEYLCIDDCWMAPQRDSEGRLQADPQRFPHGIRQLANYVHSKGLKLGIYADVGNKTCAGFPGSFGYYDIDAQTFADWGVDLLKFDVCYCDSLENLADGYKHMSLALNRTGRSIVYSCEWPLYMWPFQKPNYTEIRQYCNHWRNFADIDDSWKSIKSILDWTSFNQERIVDVAGPGGWNDPDMLVIGNFGLSWNQQVTQMALWAIMAAPLFMSNDLRHISPQAKALLQDKDVIAINQDPLGKQGYQLRQGDNFEVWERPLSGLAWAVAMINRQEIGGPRSYTIAVASLGKGVACNPACFITQLLPVKRKLGFYEWTSRLRSHINPTGTVLLQLENTMQMSLKDLL
Absolute increase (% WT): 6.4 % WT | Relative increase: 3.6 | 10 μM migalastat α-Gal A activity (% WT): 9.2 ± 0.9 % WT | Baseline α-Gal A activity (% WT): 2.8 ± 0.2 % WT | Baseline α-Gal A activity: 856 ± 62 nmol/mg/h | 10 μM migalastat α-Gal A activity: 3111 ± 411 nmol/mg/h

B4: Y173C (protein)
chain: MQLRNPELHLGCALALRFLALVSWDIPGARALDNGLARTPTMGWLHWERFMCNLDCQEEPDSCISEKLFMEMAELMVSEGWKDAGYEYLCIDDCWMAPQRDSEGRLQADPQRFPHGIRQLANYVHSKGLKLGIYADVGNKTCAGFPGSFGYYDIDAQTFADWGVDLLKFDGCCCDSLENLADGYKHMSLALNRTGRSIVYSCEWPLYMWPFQKPNYTEIRQYCNHWRNFADIDDSWKSIKSILDWTSFNQERIVDVAGPGGWNDPDMLVIGNFGLSWNQQVTQMALWAIMAAPLFMSNDLRHISPQAKALLQDKDVIAINQDPLGKQGYQLRQGDNFEVWERPLSGLAWAVAMINRQEIGGPRSYTIAVASLGKGVACNPACFITQLLPVKRKLGFYEWTSRLRSHINPTGTVLLQLENTMQMSLKDLL
Absolute increase (% WT): 29.3 % WT | Relative increase: 1.6 | 10 μM migalastat α-Gal A activity (% WT): 80.5 ± 3.3 % WT | Baseline α-Gal A activity (% WT): 51.1 ± 3.6 % WT | Baseline α-Gal A activity: 17669 ± 1240 nmol/mg/h | 10 μM migalastat α-Gal A activity: 27924 ± 1225 nmol/mg/h

B5: Y173H (protein)
chain: MQLRNPELHLGCALALRFLALVSWDIPGARALDNGLARTPTMGWLHWERFMCNLDCQEEPDSCISEKLFMEMAELMVSEGWKDAGYEYLCIDDCWMAPQRDSEGRLQADPQRFPHGIRQLANYVHSKGLKLGIYADVGNKTCAGFPGSFGYYDIDAQTFADWGVDLLKFDGCHCDSLENLADGYKHMSLALNRTGRSIVYSCEWPLYMWPFQKPNYTEIRQYCNHWRNFADIDDSWKSIKSILDWTSFNQERIVDVAGPGGWNDPDMLVIGNFGLSWNQQVTQMALWAIMAAPLFMSNDLRHISPQAKALLQDKDVIAINQDPLGKQGYQLRQGDNFEVWERPLSGLAWAVAMINRQEIGGPRSYTIAVASLGKGVACNPACFITQLLPVKRKLGFYEWTSRLRSHINPTGTVLLQLENTMQMSLKDLL
Absolute increase (% WT): 18.3 % WT | Relative increase: 1.3 | 10 μM migalastat α-Gal A activity (% WT): 80.2 ± 4.6 % WT | Baseline α-Gal A activity (% WT): 61.9 ± 3.4 % WT | Baseline α-Gal A activity: 21234 ± 879 nmol/mg/h | 10 μM migalastat α-Gal A activity: 27455 ± 1147 nmol/mg/h

B6: D175G (protein)
chain: MQLRNPELHLGCALALRFLALVSWDIPGARALDNGLARTPTMGWLHWERFMCNLDCQEEPDSCISEKLFMEMAELMVSEGWKDAGYEYLCIDDCWMAPQRDSEGRLQADPQRFPHGIRQLANYVHSKGLKLGIYADVGNKTCAGFPGSFGYYDIDAQTFADWGVDLLKFDGCYCGSLENLADGYKHMSLALNRTGRSIVYSCEWPLYMWPFQKPNYTEIRQYCNHWRNFADIDDSWKSIKSILDWTSFNQERIVDVAGPGGWNDPDMLVIGNFGLSWNQQVTQMALWAIMAAPLFMSNDLRHISPQAKALLQDKDVIAINQDPLGKQGYQLRQGDNFEVWERPLSGLAWAVAMINRQEIGGPRSYTIAVASLGKGVACNPACFITQLLPVKRKLGFYEWTSRLRSHINPTGTVLLQLENTMQMSLKDLL
Absolute increase (% WT): 18.1 % WT | Relative increase: 1.2 | 10 μM migalastat α-Gal A activity (% WT): 92.8 ± 6.2 % WT | Baseline α-Gal A activity (% WT): 74.7 ± 6.7 % WT | Baseline α-Gal A activity: 23065 ± 2315 nmol/mg/h | 10 μM migalastat α-Gal A activity: 28273 ± 1968 nmol/mg/h

B7: G171A (protein)
chain: MQLRNPELHLGCALALRFLALVSWDIPGARALDNGLARTPTMGWLHWERFMCNLDCQEEPDSCISEKLFMEMAELMVSEGWKDAGYEYLCIDDCWMAPQRDSEGRLQADPQRFPHGIRQLANYVHSKGLKLGIYADVGNKTCAGFPGSFGYYDIDAQTFADWGVDLLKFDACYCDSLENLADGYKHMSLALNRTGRSIVYSCEWPLYMWPFQKPNYTEIRQYCNHWRNFADIDDSWKSIKSILDWTSFNQERIVDVAGPGGWNDPDMLVIGNFGLSWNQQVTQMALWAIMAAPLFMSNDLRHISPQAKALLQDKDVIAINQDPLGKQGYQLRQGDNFEVWERPLSGLAWAVAMINRQEIGGPRSYTIAVASLGKGVACNPACFITQLLPVKRKLGFYEWTSRLRSHINPTGTVLLQLENTMQMSLKDLL
Absolute increase (% WT): 26.4 % WT | Relative increase: 1.4 | 10 μM migalastat α-Gal A activity (% WT): 84 ± 5.7 % WT | Baseline α-Gal A activity (% WT): 57.6 ± 2.8 % WT | Baseline α-Gal A activity: 19081 ± 1801 nmol/mg/h | 10 μM migalastat α-Gal A activity: 27514 ± 2486 nmol/mg/h

B8: Y173F (protein)
chain: MQLRNPELHLGCALALRFLALVSWDIPGARALDNGLARTPTMGWLHWERFMCNLDCQEEPDSCISEKLFMEMAELMVSEGWKDAGYEYLCIDDCWMAPQRDSEGRLQADPQRFPHGIRQLANYVHSKGLKLGIYADVGNKTCAGFPGSFGYYDIDAQTFADWGVDLLKFDGCFCDSLENLADGYKHMSLALNRTGRSIVYSCEWPLYMWPFQKPNYTEIRQYCNHWRNFADIDDSWKSIKSILDWTSFNQERIVDVAGPGGWNDPDMLVIGNFGLSWNQQVTQMALWAIMAAPLFMSNDLRHISPQAKALLQDKDVIAINQDPLGKQGYQLRQGDNFEVWERPLSGLAWAVAMINRQEIGGPRSYTIAVASLGKGVACNPACFITQLLPVKRKLGFYEWTSRLRSHINPTGTVLLQLENTMQMSLKDLL
Absolute increase (% WT): 21.2 % WT | Relative increase: 1.3 | 10 μM migalastat α-Gal A activity (% WT): 97.7 ± 4.7 % WT | Baseline α-Gal A activity (% WT): 76.5 ± 4.2 % WT | Baseline α-Gal A activity: 26479 ± 1523 nmol/mg/h | 10 μM migalastat α-Gal A activity: 33158 ± 657 nmol/mg/h
